Reference: US20080020978A1 (Amgen, published 2008)
Square brackets hold non-standard residues; d marks the D form. Tpi = O=C(O)[C@@H]1Cc2c([nH]c3ccccc23)CN1; Oic = O=C(O)[C@@H]1C[C@@H]2CCCC[C@@H]2N1; hArg = N=C(N)NCCCC[C@H](N)C(=O)O; Cit = NC(=O)NCCC[C@H](N)C(=O)O; Aib = CC(C)(N)C(=O)O

Target: CGRP1 receptor (CRLR/RAMP1 complex) of human neuroblastoma SK-N-MC cells (human, UniProt Q16602 23-461; O60894 27-148)
Experiment: cell-based or functional assay

Chain of CGRP1 receptor (CRLR/RAMP1 complex) of human neuroblastoma SK-N-MC cells (Q16602 23-461, chain 1 of 2): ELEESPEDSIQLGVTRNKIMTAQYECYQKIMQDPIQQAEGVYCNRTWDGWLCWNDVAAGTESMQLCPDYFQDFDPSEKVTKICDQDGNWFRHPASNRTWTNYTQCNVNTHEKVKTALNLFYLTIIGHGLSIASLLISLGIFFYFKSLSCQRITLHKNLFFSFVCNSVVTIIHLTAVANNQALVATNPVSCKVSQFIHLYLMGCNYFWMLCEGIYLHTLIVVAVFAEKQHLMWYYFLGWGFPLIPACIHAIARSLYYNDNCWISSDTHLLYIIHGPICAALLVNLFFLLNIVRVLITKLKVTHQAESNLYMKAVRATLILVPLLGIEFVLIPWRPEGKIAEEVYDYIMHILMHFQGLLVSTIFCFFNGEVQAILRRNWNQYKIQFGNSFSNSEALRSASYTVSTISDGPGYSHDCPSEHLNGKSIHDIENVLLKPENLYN
Chain of CGRP1 receptor (CRLR/RAMP1 complex) of human neuroblastoma SK-N-MC cells (O60894 27-148, chain 2 of 2): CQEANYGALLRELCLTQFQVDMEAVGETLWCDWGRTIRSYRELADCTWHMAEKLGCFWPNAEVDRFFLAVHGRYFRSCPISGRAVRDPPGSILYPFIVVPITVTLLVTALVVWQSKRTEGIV

Binder | IC50
Ac-WVTH[Cit]LAGLLS[Cit]SGGVV[hArg]KNFVPTDVGPF-NH2 (SMILES CC(=O)N[C@@H](Cc1c[nH]c2ccccc12)C(=O)N[C@H](C(=O)N[C@H](C(=O)N[C@@H](Cc1c[nH]cn1)C(=O)N[C@@H](CCCNC(N)=O)C(=O)N[C@@H](CC(C)C)C(=O)N[C@@H](C)C(=O)NCC(=O)N[C@@H](CC(C)C)C(=O)N[C@@H](CC(C)C)C(=O)N[C@@H](CO)C(=O)N[C@@H](CCCNC(N)=O)C(=O)N[C@@H](CO)C(=O)NCC(=O)NCC(=O)N[C@H](C(=O)N[C@H](C(=O)N[C@@H](CCCCNC(=N)N)C(=O)N[C@@H](CCCCN)C(=O)N[C@@H](CC(N)=O)C(=O)N[C@@H](Cc1ccccc1)C(=O)N[C@H](C(=O)N1CCC[C@H]1C(=O)N[C@H](C(=O)N[C@@H](CC(=O)O)C(=O)N[C@H](C(=O)NCC(=O)N1CCC[C@H]1C(=O)N[C@@H](Cc1ccccc1)C(N)=O)C(C)C)[C@@H](C)O)C(C)C)C(C)C)C(C)C)[C@@H](C)O)C(C)C) [SEQ ID NO 655] | > 1000 nM
Ac-[Cit]LAGLLS[Cit]SGGVV[hArg]KNFVPTDVGPFAF-NH2 (SMILES CC(=O)N[C@@H](CCCNC(N)=O)C(=O)N[C@@H](CC(C)C)C(=O)N[C@@H](C)C(=O)NCC(=O)N[C@@H](CC(C)C)C(=O)N[C@@H](CC(C)C)C(=O)N[C@@H](CO)C(=O)N[C@@H](CCCNC(N)=O)C(=O)N[C@@H](CO)C(=O)NCC(=O)NCC(=O)N[C@H](C(=O)N[C@H](C(=O)N[C@@H](CCCCNC(=N)N)C(=O)N[C@@H](CCCCN)C(=O)N[C@@H](CC(N)=O)C(=O)N[C@@H](Cc1ccccc1)C(=O)N[C@H](C(=O)N1CCC[C@H]1C(=O)N[C@H](C(=O)N[C@@H](CC(=O)O)C(=O)N[C@H](C(=O)NCC(=O)N1CCC[C@H]1C(=O)N[C@@H](Cc1ccccc1)C(=O)N[C@@H](C)C(=O)N[C@@H](Cc1ccccc1)C(N)=O)C(C)C)[C@@H](C)O)C(C)C)C(C)C)C(C)C) [SEQ ID NO 657] | 13 nM
Ac-WVTH[Cit]LAGLLS[Cit]SGGVV[hArg]KNFVPTDVG[Oic]FA-NH2 (SMILES CC(=O)N[C@@H](Cc1c[nH]c2ccccc12)C(=O)N[C@H](C(=O)N[C@H](C(=O)N[C@@H](Cc1c[nH]cn1)C(=O)N[C@@H](CCCNC(N)=O)C(=O)N[C@@H](CC(C)C)C(=O)N[C@@H](C)C(=O)NCC(=O)N[C@@H](CC(C)C)C(=O)N[C@@H](CC(C)C)C(=O)N[C@@H](CO)C(=O)N[C@@H](CCCNC(N)=O)C(=O)N[C@@H](CO)C(=O)NCC(=O)NCC(=O)N[C@H](C(=O)N[C@H](C(=O)N[C@@H](CCCCNC(=N)N)C(=O)N[C@@H](CCCCN)C(=O)N[C@@H](CC(N)=O)C(=O)N[C@@H](Cc1ccccc1)C(=O)N[C@H](C(=O)N1CCC[C@H]1C(=O)N[C@H](C(=O)N[C@@H](CC(=O)O)C(=O)N[C@H](C(=O)NCC(=O)N1[C@H](C(=O)N[C@@H](Cc2ccccc2)C(=O)N[C@@H](C)C(N)=O)C[C@@H]2CCCC[C@@H]21)C(C)C)[C@@H](C)O)C(C)C)C(C)C)C(C)C)[C@@H](C)O)C(C)C) [SEQ ID NO 659] | > 1000 nM
Ac-VTH[Cit]LAGLLS[Cit]SGGVV[hArg]KNFVPTDVG[Oic]FAF-NH2 (SMILES CC(=O)N[C@H](C(=O)N[C@H](C(=O)N[C@@H](Cc1c[nH]cn1)C(=O)N[C@@H](CCCNC(N)=O)C(=O)N[C@@H](CC(C)C)C(=O)N[C@@H](C)C(=O)NCC(=O)N[C@@H](CC(C)C)C(=O)N[C@@H](CC(C)C)C(=O)N[C@@H](CO)C(=O)N[C@@H](CCCNC(N)=O)C(=O)N[C@@H](CO)C(=O)NCC(=O)NCC(=O)N[C@H](C(=O)N[C@H](C(=O)N[C@@H](CCCCNC(=N)N)C(=O)N[C@@H](CCCCN)C(=O)N[C@@H](CC(N)=O)C(=O)N[C@@H](Cc1ccccc1)C(=O)N[C@H](C(=O)N1CCC[C@H]1C(=O)N[C@H](C(=O)N[C@@H](CC(=O)O)C(=O)N[C@H](C(=O)NCC(=O)N1[C@H](C(=O)N[C@@H](Cc2ccccc2)C(=O)N[C@@H](C)C(=O)N[C@@H](Cc2ccccc2)C(N)=O)C[C@@H]2CCCC[C@@H]21)C(C)C)[C@@H](C)O)C(C)C)C(C)C)C(C)C)[C@@H](C)O)C(C)C) [SEQ ID NO 660] | 3 nM
Ac-[Cit]LAGLLS[Cit]SGGVV[hArg]KNFVPTDVG[Oic]FAF-NH2 [SEQ ID NO 661] | 8.74 nM
Ac-LAGLLS[Cit]SGGVV[hArg]KNFVPTDVG[Oic]FAF-NH2 (SMILES CC(=O)N[C@@H](CC(C)C)C(=O)N[C@@H](C)C(=O)NCC(=O)N[C@@H](CC(C)C)C(=O)N[C@@H](CC(C)C)C(=O)N[C@@H](CO)C(=O)N[C@@H](CCCNC(N)=O)C(=O)N[C@@H](CO)C(=O)NCC(=O)NCC(=O)N[C@H](C(=O)N[C@H](C(=O)N[C@@H](CCCCNC(=N)N)C(=O)N[C@@H](CCCCN)C(=O)N[C@@H](CC(N)=O)C(=O)N[C@@H](Cc1ccccc1)C(=O)N[C@H](C(=O)N1CCC[C@H]1C(=O)N[C@H](C(=O)N[C@@H](CC(=O)O)C(=O)N[C@H](C(=O)NCC(=O)N1[C@H](C(=O)N[C@@H](Cc2ccccc2)C(=O)N[C@@H](C)C(=O)N[C@@H](Cc2ccccc2)C(N)=O)C[C@@H]2CCCC[C@@H]21)C(C)C)[C@@H](C)O)C(C)C)C(C)C)C(C)C) [SEQ ID NO 662] | 16.5 nM
Ac-WVTH[Cit]LAGLLS[Cit]SGGVV[Cit]KNFVPTDVG[Oic]KAF-NH2 (SMILES CC(=O)N[C@@H](Cc1c[nH]c2ccccc12)C(=O)N[C@H](C(=O)N[C@H](C(=O)N[C@@H](Cc1c[nH]cn1)C(=O)N[C@@H](CCCNC(N)=O)C(=O)N[C@@H](CC(C)C)C(=O)N[C@@H](C)C(=O)NCC(=O)N[C@@H](CC(C)C)C(=O)N[C@@H](CC(C)C)C(=O)N[C@@H](CO)C(=O)N[C@@H](CCCNC(N)=O)C(=O)N[C@@H](CO)C(=O)NCC(=O)NCC(=O)N[C@H](C(=O)N[C@H](C(=O)N[C@@H](CCCNC(N)=O)C(=O)N[C@@H](CCCCN)C(=O)N[C@@H](CC(N)=O)C(=O)N[C@@H](Cc1ccccc1)C(=O)N[C@H](C(=O)N1CCC[C@H]1C(=O)N[C@H](C(=O)N[C@@H](CC(=O)O)C(=O)N[C@H](C(=O)NCC(=O)N1[C@H](C(=O)N[C@@H](CCCCN)C(=O)N[C@@H](C)C(=O)N[C@@H](Cc2ccccc2)C(N)=O)C[C@@H]2CCCC[C@@H]21)C(C)C)[C@@H](C)O)C(C)C)C(C)C)C(C)C)[C@@H](C)O)C(C)C) [SEQ ID NO 665] | 3.77 nM
WVTHXLAGLLSXSGGVVXKNFVPTDVGXFAF (AC-WVTH[Cit]LAGLLS[Cit]SGGVV[hArg]KNFVPTDVG[Pip]FAF-NH2) [SEQ ID NO 666] | 11.2 nM
WVTHXLAGLLSXSGGVVXKNFVPTDVGXFAF (Ac-WVTH[Cit]LAGLLS[Cit]SGGVV[hArg]KNFVPTDVG[Hyp]FAF-NH2) [SEQ ID NO 667] | 6.62 nM
WVTHXLAGLLSXSGGVVXKNFVPTDVGXFAF (AC-WVTH[Cit]LAGLLS[Cit]SGGVV[hArg]KNFVPTDVG[Hyp]FAF-NH2) [SEQ ID NO 668] | 6.01 nM
WVTHXLAGLLSXSGGVVXKNFVPTDVGPXAF (Ac-WVTH[Cit]LAGLLS[Cit]SGGVV[hArg]KNFVPTDVGP[Tic]AF-NH2) [SEQ ID NO 131] | 89.9 nM
Ac-WVTH[Cit]LAGLLS[Cit]SGGVV[hArg]KNFVPTDVG[Aib]FAF-NH2 [SEQ ID NO 670] | 4.37 nM
Ac-WVTH[Cit]LAGLLS[Cit]SGGVV[hArg]KNFVPTDVG[Tpi]FAF-NH2 (SMILES CC(=O)N[C@@H](Cc1c[nH]c2ccccc12)C(=O)N[C@H](C(=O)N[C@H](C(=O)N[C@@H](Cc1c[nH]cn1)C(=O)N[C@@H](CCCNC(N)=O)C(=O)N[C@@H](CC(C)C)C(=O)N[C@@H](C)C(=O)NCC(=O)N[C@@H](CC(C)C)C(=O)N[C@@H](CC(C)C)C(=O)N[C@@H](CO)C(=O)N[C@@H](CCCNC(N)=O)C(=O)N[C@@H](CO)C(=O)NCC(=O)NCC(=O)N[C@H](C(=O)N[C@H](C(=O)N[C@@H](CCCCNC(=N)N)C(=O)N[C@@H](CCCCN)C(=O)N[C@@H](CC(N)=O)C(=O)N[C@@H](Cc1ccccc1)C(=O)N[C@H](C(=O)N1CCC[C@H]1C(=O)N[C@H](C(=O)N[C@@H](CC(=O)O)C(=O)N[C@H](C(=O)NCC(=O)N1Cc2[nH]c3ccccc3c2C[C@H]1C(=O)N[C@@H](Cc1ccccc1)C(=O)N[C@@H](C)C(=O)N[C@@H](Cc1ccccc1)C(N)=O)C(C)C)[C@@H](C)O)C(C)C)C(C)C)C(C)C)[C@@H](C)O)C(C)C) [SEQ ID NO 673] | 28.9 nM
WVTHXLAGLLSXSGGVVXKNFVPTDVGXXAF (Ac-WVTH[Cit]LAGLLS[Cit]SGGVV[hArg]KNFVPTDVG[Pip][1-Nal]AF-NH2) [SEQ ID NO 675] | 10.8 nM
Ac-WVTH[Cit]LAGLLS[Cit]SGGVV[hArg]KNFVPTDVGP[Tpi]AF-NH2 (SMILES CC(=O)N[C@@H](Cc1c[nH]c2ccccc12)C(=O)N[C@H](C(=O)N[C@H](C(=O)N[C@@H](Cc1c[nH]cn1)C(=O)N[C@@H](CCCNC(N)=O)C(=O)N[C@@H](CC(C)C)C(=O)N[C@@H](C)C(=O)NCC(=O)N[C@@H](CC(C)C)C(=O)N[C@@H](CC(C)C)C(=O)N[C@@H](CO)C(=O)N[C@@H](CCCNC(N)=O)C(=O)N[C@@H](CO)C(=O)NCC(=O)NCC(=O)N[C@H](C(=O)N[C@H](C(=O)N[C@@H](CCCCNC(=N)N)C(=O)N[C@@H](CCCCN)C(=O)N[C@@H](CC(N)=O)C(=O)N[C@@H](Cc1ccccc1)C(=O)N[C@H](C(=O)N1CCC[C@H]1C(=O)N[C@H](C(=O)N[C@@H](CC(=O)O)C(=O)N[C@H](C(=O)NCC(=O)N1CCC[C@H]1C(=O)N1Cc2[nH]c3ccccc3c2C[C@H]1C(=O)N[C@@H](C)C(=O)N[C@@H](Cc1ccccc1)C(N)=O)C(C)C)[C@@H](C)O)C(C)C)C(C)C)C(C)C)[C@@H](C)O)C(C)C) [SEQ ID NO 676] | 79.3 nM
WVTHXLAGLLSXSGGVVXKNFVXTDVGXFAX (Ac-WVTH[Cit]LAGLLS[Cit]SGGVV[hArg]KNFV[Oic]TDVG[Oic]FA[2-Nal]-NH2) [SEQ ID NO 132] | 2.57 nM
WVTHXLAGLLSXSGGVVXKNFVXTDVGPXAX (Ac-WVTH[Cit]LAGLLS[Cit]SGGVV[hArg]KNFV[Oic]TDVGP[1-Nal]A[2-Nal]-NH2) [SEQ ID NO 133] | 2.73 nM
WVTHXLAGLLSXSGGVVXKNFVXTDVGPXAF (Ac-WVTH[Cit]LAGLLS[Cit]SGGVV[hArg]KNFV[Oic]TDVGP[Bip]AF-NH2) [SEQ ID NO 134] | 3.85 nM
WVTHXLAGLLSXSGGVVXKNFVXTDVGPFAX (Ac-WVTH[Cit]LAGLLS[Cit]SGGVV[hArg]KNFV[Oic]TDVGPFA[2-Nal]-NH2) [SEQ ID NO 135] | 3.22 nM
